Experimental data from patent US20150329595A1 (NORTH CAROLINA STATE UNIVERSITY, published 2015).

B1: AD:TAL11-352 prey (activation domain fused to full-length TGMV AL1) (other, Tomato golden mosaic virus, UniProt P03567 1-352, looked up, not shown: large carriers)
chain: MPSHPKRFQINAKNYFLTYPQCSLSKEESLSQLQALNTPINKKFIKICRELHEDGQPHLHVLIQFEGKYCCQNQRFFDLVSPTRSAHFHPNIQRAKSSSDVKTYIDKDGDTLVWGEFQVDGRSARGGCQTSNDAAAEALNASSKEEALQIIREKIPEKYLFQFHNLNSNLDRIFDKTPEPWLPPFHVSSFTNVPDEMRQWAENYFGKSSAARPERPISIIIEGDSRTGKTMWARSLGPHNYLSGHLDLNSRVYSNKVEYNVIDDVTPQYLKLKHWKELIGAQRDWQTNCKYGKPVQIKGGIPSIVLCNPGEGASYKVFLDKEENTPLKNWTFHNAKFVFLNSPLYQSSTQSS
notes: positive prey control; also called pNSB970

Legend:
[1] = target: B1; assay: yeast two-hybrid growth
[2] = target: T1, GUS bait (LexA DBD:beta-glucuronidase fusion) (E. coli, UniProt P0A7C2 1-202; P05804 1-603); assay: yeast two-hybrid growth
T1 construct: negative control bait; also called pNSB1120

Row | Binder | binding result [1] | binding result [2]
1 | TAL11-130 bait (LexA DBD fused to the first 130 amino acids of TGMV AL1) (other, E. coli;Tomato golden mosaic virus, UniProt P0A7C2 1-202, looked up, yeast two-hybrid bait; also called NT; Rep1-130) MKALTARQQEVFDLIRDHISQTGMPPTRAEIAQRLGFRSPNAAEEHLKALARKGVIEIVSGASRGIRLLQEEEEGLPLVGRVAAGEPLLAQQHIEGHYQVDPSLFKPNADFLLRVSGMSMKDIGIMDGDLLAVHKTQDVRNGQVVVARIDDEVTVKRLKKQGNKVELLPENSEFKPIVVDLRQQSFTIEGLAVGVIRNGDWLMPSHPKRFQINAKNYFLTYPQCSLSKEESLSQLQALNTPINKKFIKICRELHEDGQPHLHVLIQFEGKYCCQNQRFFDLVSPTRSAHFHPNIQRAKSSSDVKTYIDKDGDTLVWGEFQVDGRSARGGCQT | no binding | 
2 | B1 |  | no binding
